Measurements: US20240301067A1 (WUXI BIOLOGICS IRELAND, published 2024)
Residue numbers refer to the chain shown, from its start. In names and notes the source's numbering stands.

Tests used:
[1] = target: T1, Human PD-1 extracellular domain, mFc tag (human, UniProt Q15116 25-170); test: ELISA competition on coated hPro1.ECD.mFc; competitor hPro1L2.ECD.His; experiment 1
T1 construct: extracellular domain; also called hPro1.ECD.mFc; hPD-1.ECD.mFc; not shown: mouse Fc tag at C-terminus
Protocol: (§1) Plates were pre-coated with 1 μg/mL, 100 μL per well of human PD-1 ECD (hPro1.ECD.mFc) at 4° C. overnight. After 1-hour blocking using 200 μL of 1×PBS/2% BSA, constant concentration of his tagged human PD-L2 ECD (hPro1L2.ECD.His) and various concentrations of testing antibodies (3-fold serially diluted from 66.7 nM to 0.003 nM) were pre-mixed and added to the plates. After 2-hour incubation at ambient temperature, the binding of the ligand to the immobilized protein was detected by HRP-labeled goat anti-His antibody. The color was developed by dispensing 100 μL of TMB substrate, and then stopped by 100 μL of 2N HCl. The absorbance was read at 450 nm and 540 nm using a microplate spectrophotometer.

[2] = target: T1, Human PD-1 extracellular domain, mFc tag; test: ELISA competition on coated hPro1.ECD.mFc; competitor hPro1L2.ECD.His; experiment 2
Protocol: as §1

[3] = target: T2, Cynomolgus PD-1 extracellular domain, hFc tag (cynomolgus, UniProt B0LAJ3 25-170); test: ELISA competition on coated cynoPro1.ECD.hFc; competitor cynoProL1.ECD.hFc.biotin 2.5 µg/mL; experiment 2
T2 construct: Bought; also called cynoPro1.ECD.hFc; cyno PD-1 ECD protein
T2 sequence (B0LAJ3 entry or part of it limits assumed): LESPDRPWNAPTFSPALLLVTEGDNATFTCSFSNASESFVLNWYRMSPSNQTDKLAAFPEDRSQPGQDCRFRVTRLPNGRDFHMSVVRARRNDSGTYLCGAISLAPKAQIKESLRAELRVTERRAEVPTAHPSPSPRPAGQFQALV
Protocol: Plates were pre-coated with 1 μg/mL, 100 μL per well of cyno PD-1 ECD protein (cynoPro1.ECD.hFc) at 4° C. overnight. After 1-hour blocking using 200 μL of 1×PBS/2% BSA, constant concentration of biotinylated cyno PD-L1 (cynoProL1.ECD.hFc.biotin) (2.5 μg/mL) and various concentrations of testing antibody, positive and negative control (3-fold serially diluted from 133.4 nM to 0.007 nM) were pre-mixed and added to the plates. The plates were incubated at ambient temperature for 1 hour. The binding of ligand to the immobilized protein was detected by streptavidin-HRP. The color was developed by dispensing 100 μL of TMB substrate, and then stopped by 100 μL of 2M HCl. The absorbance was read at 450 nm and 540 nm using a microplate spectrophotometer.

[4] = target: Human PD-1 (soluble analyte in SPR, Table 11) (human, UniProt Q15116 25-167); test: SPR Biacore 8K; antibody captured on anti-human Fc chip, PD-1 injected; 1:1 fit
Human PD-1 (soluble analyte in SPR, Table 11), sequence (Q15116 25-167 limits assumed): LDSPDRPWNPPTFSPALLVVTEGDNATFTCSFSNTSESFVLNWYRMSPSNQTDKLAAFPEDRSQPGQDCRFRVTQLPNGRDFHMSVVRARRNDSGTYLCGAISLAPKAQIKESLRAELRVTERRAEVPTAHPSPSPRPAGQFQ
Protocol: (§2) Antibody binding affinity to human, mouse and cynomolgus PD-1 was detected using Biacore 8K. W3056-AP17R1-2H2-Z1-R1-14A1-FC (IgG4.SP) was captured on an anti-human Fc IgG antibody immobilized CM5 sensor chip (GE). Human, mouse and cynomolgus PD-1 at different concentrations were injected over the sensor chip at a flow rate of 30 uL/min for an association phase of 120 s, followed by 150 s dissociation. The chip was then regenerated by 10 mM Glycine pH 1.5 after each binding cycle.
(§3) The sensorgrams of blank surface and buffer channel were subtracted from the test sensorgrams. The experimental data was fitted by 1:1 model using Langmiur analysis. Molecular weight of 40, 45 and 40 kDa was used to calculate the molar concentration of analyte human, mouse and cynomolgus PD-1 respectively.

[5] = target: T3, Mouse PD-1 (soluble analyte in SPR, Table 11) (mouse, UniProt Q02242 25-167, limits assumed); test: as above
T3 sequence (looked up): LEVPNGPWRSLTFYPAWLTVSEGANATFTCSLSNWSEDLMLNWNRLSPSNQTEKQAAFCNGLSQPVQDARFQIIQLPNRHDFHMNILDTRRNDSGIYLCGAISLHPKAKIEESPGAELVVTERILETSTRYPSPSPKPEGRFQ
Protocol: as §2, §3

T1 sequence (Q15116 25-170): as the sequence (B0LAJ3 entry or part of it limits assumed) above, with E2D, A10P, L19V, A35T, R75Q, A144T counted along it

B1: W3056-AP17R1-2H2-FC(IgG4.SP) (Fc fusion)
chain: QVQLVESGGGLVQPGGSLRLSCAASDSIDSLVNMGWYRQAPGKQRELVALIANYITHYADFVKGRFTISRDAAKNTVNLQMSSLKPEDTAVYYCYARNIIVDYWGQGTQVTVSS
notes: VHH fused to Fc of human IgG4 S228P; also called W3056 lead parental antibody (VHH-Fc(hIgG4) fusion); not shown: Fc of human IgG4 (hIgG4.S228P)
B1 was tested, and the IC50 [1] was 2.02 nM.

B2: W3056-AP17R1-2H2-Z1-R1-14A1-FC(IgG4.SP) (Fc fusion)
chain: B1 chain with L11V, N53T, A72N, A73S, V77L, N78Y, S82N, K85R, P86A, Q109L
notes: also called W3056 lead antibody (VHH-Fc(hIgG4) fusion); not shown: Fc of human IgG4 (hIgG4.S228P)
Work on B2 yielded an IC50 [2] of 0.886 nM, an IC50 [3] of 0.853 nM and a Kd [4] of 3.45 nM. For the same binder, the koff [4] was 0.000857 s⁻¹, the kon [4] was 248000 M⁻¹ s⁻¹ and the Kd [5] was 28.7 nM. For the same binder, the koff [5] was 0.00422 s⁻¹ and the kon [5] was 147000 M⁻¹ s⁻¹.
